Measured values taken from paper PMC3439536.

Target: CR2 SCR1-4-BCCP (Homo sapiens, UniProt P20023 21-273)
Assay: SPR

Chain of CR2 SCR1-4-BCCP (P20023 21-273): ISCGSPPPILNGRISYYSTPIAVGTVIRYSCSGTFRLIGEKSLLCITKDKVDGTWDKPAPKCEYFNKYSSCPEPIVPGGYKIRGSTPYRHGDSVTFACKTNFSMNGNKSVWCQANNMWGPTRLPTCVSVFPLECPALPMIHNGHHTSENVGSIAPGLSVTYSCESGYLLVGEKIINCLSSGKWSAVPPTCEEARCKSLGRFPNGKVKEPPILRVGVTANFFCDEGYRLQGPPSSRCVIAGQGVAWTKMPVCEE

| Binder | Kd [nM] |
| --- | --- |
| 25bp adenoviral E1a DNA (dsDNA) DNA 1: TTCTATGCCAAACCTTGTGCCGGAG DNA 2: CTCCGGCACAAGGTTTGGCATAGAA | 358 |
| 16bp scrambled DNA (dsDNA) DNA 1: ATGCATGCTGACTACG DNA 2: CGTAGTCAGCATGCAT | 266 |
| 15bp adenoviral E1a DNA (dsDNA) DNA 1: TTCTATGCCAAACCT DNA 2: AGGTTTGGCATAGAA | 245 |
| 50% CpG rich DNA (dsDNA) DNA 1: TTCGATCGCACGCCCG DNA 2: CGGGCGTGCGATCGAA | 509 |
